{"source": "patent US20240228570A9", "about": "“PLATFORM TECHNOLOGY FOR TREATMENT OF INFLAMMATORY, IMMUNOLOGICAL AND/OR AUTOIMMUNOLOGICAL DISEASES” (ellennbe GmbH, priority 2021, published 2024)", "molecules": {"B1": {"name": "Cimzia®: biologic, certolizumab pegol (antibody, chains of the INN, looked up, V domains shown)", "VH": "EVQLVESGGGLVQPGGSLRLSCAASGYVFTDYGMNWVRQAPGKGLEWMGWINTYIGEPIYADSVKGRFTFSLDTSKSTAYLQMNSLRAEDTAVYYCARGYRSYAMDYWGQGTLVTVSS", "VL": "DIQMTQSPSSLSASVGDRVTITCKASQNVGTNVAWYQQKPGKAPKALIYSASFLYSGVPYRFSGSGSGTDFTLTISSLQPEDFATYYCQQYNIYPLTFGQGTKVEIK", "modifications": "Fab' PEG (pegol)"}}, "tested_on": "inflammatory disease, immunological disease and/or autoimmunological disease", "test": "Treatment of patients: condition as stated by patient and physician (pain, fatigue, daily life, duration of effect, relapses)", "assay_type": "in vivo, human", "conditions": "Patient 11, ankylosing spondylitis; within half a year the biologics lost their effect", "method": "All patients treated in the following Inventive Examples, Reference Examples and Comparative Examples were selected solely based on their diagnosis without performing a preselection in view of other parameters.\nAnnotation to the Tables 8A and B and 9 to 10: Patients were usually examined and treated in the same session. The success of the treatment or the effect thereof was then determined in the following session, usually one week later, and the next treatment performed as indicated in the tables.", "data": [{"molecule": "B1", "values": [{"measurement": "effect of earlier treatment with biologics (patient's report)", "value": "had little effect from the outset"}]}]}
